Measurements reported in patent publication US20220002407A1.

Molecular target: CD19 on CD19-positive human tumor cells (Raji, Raji-Luc, NALM6, Reh) (human) (UniProt P15391)
Test: cell-based or functional assay

Chain of CD19 on CD19-positive human tumor cells (Raji, Raji-Luc, NALM6, Reh) (human) (P15391 20-556): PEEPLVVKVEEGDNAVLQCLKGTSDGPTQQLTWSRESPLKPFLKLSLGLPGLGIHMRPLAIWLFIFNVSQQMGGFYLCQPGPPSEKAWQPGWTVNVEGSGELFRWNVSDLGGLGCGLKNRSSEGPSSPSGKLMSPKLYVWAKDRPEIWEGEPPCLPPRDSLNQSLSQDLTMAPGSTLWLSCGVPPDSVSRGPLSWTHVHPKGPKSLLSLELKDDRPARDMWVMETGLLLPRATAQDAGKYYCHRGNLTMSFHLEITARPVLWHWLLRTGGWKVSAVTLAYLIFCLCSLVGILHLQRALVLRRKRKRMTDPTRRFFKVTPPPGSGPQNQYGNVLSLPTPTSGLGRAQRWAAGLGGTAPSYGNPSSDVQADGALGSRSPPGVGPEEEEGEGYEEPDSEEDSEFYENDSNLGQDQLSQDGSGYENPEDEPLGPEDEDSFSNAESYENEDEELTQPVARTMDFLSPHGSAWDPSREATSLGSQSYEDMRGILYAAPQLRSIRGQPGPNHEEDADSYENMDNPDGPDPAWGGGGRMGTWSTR

EC50 of activation of NFAT-RE luciferase reporter Jurkat T cells in the presence of Raji target cells: 2.71 nM
Substance: bispecific antibody blinatumomab (Blincyto, Amgen)
EC50 to mediate CIK to kill different tumor cells (NALM6): 0.0773 nM | EC50 to mediate CIK to kill different tumor cells (Reh): 0.0119 nM | EC50 to mediate CIK to kill tumor cells (Raji-LUC): 0.000595 nM | EC50 to mediate CIK to kill tumor cells (Raji-LUC, second row without label): 0.00565 nM | EC50 to mediate PBMCs to kill tumor cells (Raji-LUC): 0.00545 nM | EC50 to mediate PBMCs to kill tumor cells (Raji-LUC, second row without label): 0.0212 nM | EC50 to mediate PBMCs to kill tumor cells (Raji-LUC, third row without label): 0.0226 nM
